Experimental data: US20100159468A1

Biological target: Arf1-V5 (human) (UniProt P84077)
Test: cell-based or functional assay

Chain of Arf1-V5 (human) (P84077 2-181): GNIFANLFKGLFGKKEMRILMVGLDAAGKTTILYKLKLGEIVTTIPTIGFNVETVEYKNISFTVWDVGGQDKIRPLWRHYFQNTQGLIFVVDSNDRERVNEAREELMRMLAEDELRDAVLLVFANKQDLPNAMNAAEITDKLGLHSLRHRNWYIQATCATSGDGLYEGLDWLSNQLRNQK

- Arf1-GTP level (GST-GGA3 pulldown, Western blot band intensity) in BFA-treated Vero cells expressing GBF1-M832L: 45 % of control
- Arf1-GTP level (GST-GGA3 pulldown, Western blot band intensity) in GCA-treated Vero cells expressing GBF1-M832L: 86 % of control
Substance: GBF1-M832L-HA (hamster GBF1 with M830L, M832L relative to human GBF1, HA-tagged) (from UniProt Q9R1D7 1-1856)
